Reference: publication PMC5203670, “Biosynthesis of selenate reductase in Salmonella enterica: critical roles for the signal peptide and DmsD” (Microbiology, 2016)
Read-outs that look alike come from different tables or passages of the source.

What was measured:
[1] = target: YnfE signal peptide (Salmonella enterica); settings: cited from earlier work
[2] = target: T25-DmsD fusion protein (S. enterica DmsD attached to the C-terminus of T25) (Salmonella enterica serovar Typhimurium) (UniProt Q8ZPK0); assay: two-hybrid; bacterial adenylate cyclase two-hybrid (spYnfE-T18 and T25-DmsD) in E. coli MAE01 (ΔcyaA); cultures at 30 °C, β-galactosidase activity in Miller units, shown relative to the native pair
[3] = target: T25-DmsD fusion protein (S. enterica DmsD attached to the C-terminus of T25) (Salmonella enterica serovar Typhimurium) (UniProt Q8ZPK0); assay: as above; remark: listed apart in the source
[4] = target: the molecule itself; assay: cross-linking; 1 % (v/v) formaldehyde, purified DmsD (2 µM) with or without synthetic peptide 2 (100 µM), 30 min, 50 mM HEPES pH 7.6, 150 mM KCl; SDS-PAGE and anti-DmsD immunoblot

YnfE signal peptide (Salmonella enterica), sequence (P77374 1-43): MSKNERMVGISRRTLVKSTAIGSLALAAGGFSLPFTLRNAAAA

DmsD (from UniProt Q8ZPK0)
Kd [1]: 45 nM

spYnfE-T18 fusion (42-residue YnfE Tat signal peptide at the N-terminus of T18) (domain or fragment)
β-galactosidase activity (positive control, 100 %) [2]: 1720 Miller units | β-galactosidase activity (positive control, 100 %) [3]: 1650 Miller units

B1: Recombinant S. enterica DmsD, purified, hexa-histidine tag removed (natural protein, Salmonella enterica serovar Typhimurium, UniProt Q8ZPK0 1-204, looked up)
chain: MTTFLQRDDFAVTARVLGALFYYSPESHETAPLVQALLNDDWQAQWPLDAEALAPVAAMFKTHSEESLPQAWQRLFIGPYALPSPPWGSVWLDRESVLFGDSTLALRQWMRENGIQFEMQQNEPEDHFGSLLLLAAWLAENDRHHECEQLLAWHLFPWSSRFLDVFIDHAGHPFYQALGQLARLTLAQWQAQLIIPVAVKPLFR
notes: DmsD of S. enterica serovar Typhimurium, 204 residues; The forward primer encodes ENLYFQG before the first methionine; also called purified DmsD; pQE-His-TEV-DmsDst; not shown: His6, N-terminal, cleaved
stoichiometry N [4]: 2
